According to the Human Domainome abundance scans (Beltran et al. 2025):
± gives the uncertainty stated by the source.

B1: Transcriptional regulator ERG, residues 117 to 197; numbered along this chain, P11308 (parent)
chain: NMTTNERRVIVPADPTLWSTDHVRQWLEWAVKEYGLPDVNILLFQNIDGKELCKMTKDDFQRLTPSYNADILLSHLHYLRE

Variants of: B1
Test: abundance fitness (aPCA) (normalised: wild type 0, dead -1); higher = more abundant; growth selection in yeast, the domain comes from the species named
Settings: Homo sapiens

| Variant | abundance fitness |
| --- | --- |
| NMTTNERRVIVPADPTLWSTDHVRQWLEWAVKEYGLPDVNILLFQNIDGKELCKMTKDDFQRLTPSYNADIALSHLHYLRE | -0.821 ± 0.11 |
| NMTTNERRVIVPADPTLWSTDHVRQWLEWAVKEYGLPDVNILLFQNIDGKELCKMTKDDFQRLTPSYNADIHLSHLHYLRE | -0.909 ± 0.45 |
| NMTTNERRVIVPADPTLWSTDHVRQWLEWAVKEYGLPDVNILLFQNIDGKELCKMTKDDFQRLTPSYNADIKLSHLHYLRE | -0.952 ± 0.27 |
| NMTTNERRVIVPADPTLWSTDHVRQWLEWAVKEYGLPDVNILLFQNIDGKELCKMTKDDFQRLTPSYNADICLSHLHYLRE | -0.726 ± 0.13 |
| NMTTNERRVIVPADPTLWSTDHVRQWLEWAVKEYGLPDVNILLFQNIDGKELCKMTKDDFQRLTPSYNADIPLSHLHYLRE | -0.649 ± 0.26 |
| NMTTNERRVIVPADPTLWSTDHVRQWLEWAVKEYGLPDVNILLFQNIDGKELCKMTKDDFQRLTPSYNADIDLSHLHYLRE | -0.97 ± 0.33 |
| NMTTNERRVIVPADPTLWSTDHVRQWLEWAVKEYGLPDVNILLFQNIDGKELCKMTKDDFQRLTPSYNADIELSHLHYLRE | -0.719 ± 0.11 |
| NMTTNERRVIVPADPTLWSTDHVRQWLEWAVKEYGLPDVNILLFQNIDGKELCKMTKDDFQRLTPSYNADIGLSHLHYLRE | -0.953 ± 0.086 |
| NMTTNERRVIVPADPTLWSTDHVRQWLEWAVKEYGLPDVNILLFQNIDGKELCKMTKDDFQRLTPSYNADIILSHLHYLRE | -0.199 ± 0.34 |
| NMTTNERRVIVPADPTLWSTDHVRQWLEWAVKEYGLPDVNILLFQNIDGKELCKMTKDDFQRLTPSYNADINLSHLHYLRE | -1.02 ± 0.49 |
| NMTTNERRVIVPADPTLWSTDHVRQWLEWAVKEYGLPDVNILLFQNIDGKELCKMTKDDFQRLTPSYNADWLLSHLHYLRE | -0.282 ± 0.064 |
| NMTTNERRVIVPADPTLWSTDHVRQWLEWAVKEYGLPDVNILLFQNIDGKELCKMTKDDFQRLTPSYNADKLLSHLHYLRE | 0.074 ± 0.064 |
| NMTTNERRVIVPADPTLWSTDHVRQWLEWAVKEYGLPDVNILLFQNIDGKELCKMTKDDFQRLTPSYNADGLLSHLHYLRE | -0.174 ± 0.037 |
| NMTTNERRVIVPADPTLWSTDHVRQWLEWAVKEYGLPDVNILLFQNIDGKELCKMTKDDFQRLTPSYNADTLLSHLHYLRE | 0.05 ± 0.074 |
| NMTTNERRVIVPADPTLWSTDHVRQWLEWAVKEYGLPDVNILLFQNIDGKELCKMTKDDFQRLTPSYNADRLLSHLHYLRE | 0.113 ± 0.036 |
| NMTTNERRVIVPADPTLWSTDHVRQWLEWAVKEYGLPDVNILLFQNIDGKELCKMTKDDFQRLTPSYNADVLLSHLHYLRE | 0.059 ± 0.041 |
| NMTTNERRVIVPADPTLWSTDHVRQWLEWAVKEYGLPDVNILLFQNIDGKELCKMTKDDFQRLTPSYNADMLLSHLHYLRE | 0.065 ± 0.077 |

| Variant | abundance fitness |
| --- | --- |
| NMTTNERRVIVPADPTLWSTDHVRQWLEWAVKEYGLPDVNILLFQNIDGKELCKMTKDDFQRLTPSYNADALLSHLHYLRE | 0.036 ± 0.042 |
| NMTTNERRVIVPADPTLWSTDHVRQWLEWAVKEYGLPDVNILLFQNIDGKELCKMTKDDFQRLTPSYNADFLLSHLHYLRE | -0.272 ± 0.11 |
| NMTTNERRVIVPADPTLWSTDHVRQWLEWAVKEYGLPDVNILLFQNIDGKELCKMTKDDFQRLTPSYNADDLLSHLHYLRE | -0.359 ± 0.089 |
| NMTTNERRVIVPADPTLWSTDHVRQWLEWAVKEYGLPDVNILLFQNIDGKELCKMTKDDFQRLTPSYNADPLLSHLHYLRE | 0.06 ± 0.084 |
| NMTTNERRVIVPADPTLWSTDHVRQWLEWAVKEYGLPDVNILLFQNIDGKELCKMTKDDFQRLTPSYNADHLLSHLHYLRE | 0.001 ± 0.091 |
| NMTTNERRVIVPADPTLWSTDHVRQWLEWAVKEYGLPDVNILLFQNIDGKELCKMTKDDFQRLTPSYNADYLLSHLHYLRE | -0.266 ± 0.14 |
| NMTTNERRVIVPADPTLWSTDHVRQWLEWAVKEYGLPDVNILLFQNIDGKELCKMTKDDFQRLTPSYNADELLSHLHYLRE | -0.151 ± 0.053 |
| NMTTNERRVIVPADPTLWSTDHVRQWLEWAVKEYGLPDVNILLFQNIDGKELCKMTKDDFQRLTPSYNADNLLSHLHYLRE | -0.624 ± 0.23 |
| NMTTNERRVIVPADPTLWSTDHVRQWLEWAVKEYGLPDVNILLFQNIDGKELCKMTKDDFQRLTPSYNADQLLSHLHYLRE | 0.03 ± 0.055 |
| NMTTNERRVIVPADPTLWSTDHVRQWLEWAVKEYGLPDVNILLFQNIDGKELCKMTKDDFQRLTPSYNADSLLSHLHYLRE | -0.148 ± 0.056 |
| NMTTNERRVIVPADPTLWSTDHVRQWLEWAVKEYGLPDVNILLFQNIDGKELCKMTKDDFQRLTPSYNATILLSHLHYLRE | -0.157 ± 0.078 |
| NMTTNERRVIVPADPTLWSTDHVRQWLEWAVKEYGLPDVNILLFQNIDGKELCKMTKDDFQRLTPSYNASILLSHLHYLRE | -0.1 ± 0.056 |
| NMTTNERRVIVPADPTLWSTDHVRQWLEWAVKEYGLPDVNILLFQNIDGKELCKMTKDDFQRLTPSYNAQILLSHLHYLRE | -0.042 ± 0.062 |
| NMTTNERRVIVPADPTLWSTDHVRQWLEWAVKEYGLPDVNILLFQNIDGKELCKMTKDDFQRLTPSYNAVILLSHLHYLRE | -0.176 ± 0.056 |
| NMTTNERRVIVPADPTLWSTDHVRQWLEWAVKEYGLPDVNILLFQNIDGKELCKMTKDDFQRLTPSYNAYILLSHLHYLRE | -0.293 ± 0.18 |
| NMTTNERRVIVPADPTLWSTDHVRQWLEWAVKEYGLPDVNILLFQNIDGKELCKMTKDDFQRLTPSYNARILLSHLHYLRE | -0.036 ± 0.038 |
| NMTTNERRVIVPADPTLWSTDHVRQWLEWAVKEYGLPDVNILLFQNIDGKELCKMTKDDFQRLTPSYNAWILLSHLHYLRE | -0.42 ± 0.076 |
